Results: paper PMC9007600

Molecular target: tralokinumab half molecule (human)

B1: tralokinumab half molecule (antibody, V domains shown)
VH: QVQLVQSGAEVKKPGASVKVSCKASGYTFTNYGLSWVRQAPGQGLEWMGWISANNGDTNYGQEFQGRVTMTTDTSTSTAYMELRSLRSDDTAVYYCARDSSSSWARWFFDLWGRGTLVTVSS
VL: SYVLTQPPSVSVAPGKTARITCGGNIIGSKLVHWYQQKPGQAPVLVIYDDGDRPSGIPERFSGSNSGNTATLTISRVEAGDEADYYCQVWDTGSDPVVFGGGTKLTVL
dissociation half-life: 16.8 h
